Measurements taken from paper PMC3084709, “TMEFF2 Is a PDGF-AA Binding Protein with Methylation-Associated Gene Silencing in Multiple Cancer Types Including Glioma” (PLoS ONE, 2011).

Biological target: T1, recombinant human PDGF receptor α extracellular domain (PDGF sRα) (human, UniProt P16234 24-528, biotin (biotin-X-NHS) in the direct-binding ELISA on PDGF-coated wells; not said to be biotinylated in the blocking ELISA)
T1 construct: PDGF receptor α, human, extracellular domain; also called soluble PDGF receptor α; sRα-bio; source: bought: R&D Systems
T1 sequence (P16234 24-528): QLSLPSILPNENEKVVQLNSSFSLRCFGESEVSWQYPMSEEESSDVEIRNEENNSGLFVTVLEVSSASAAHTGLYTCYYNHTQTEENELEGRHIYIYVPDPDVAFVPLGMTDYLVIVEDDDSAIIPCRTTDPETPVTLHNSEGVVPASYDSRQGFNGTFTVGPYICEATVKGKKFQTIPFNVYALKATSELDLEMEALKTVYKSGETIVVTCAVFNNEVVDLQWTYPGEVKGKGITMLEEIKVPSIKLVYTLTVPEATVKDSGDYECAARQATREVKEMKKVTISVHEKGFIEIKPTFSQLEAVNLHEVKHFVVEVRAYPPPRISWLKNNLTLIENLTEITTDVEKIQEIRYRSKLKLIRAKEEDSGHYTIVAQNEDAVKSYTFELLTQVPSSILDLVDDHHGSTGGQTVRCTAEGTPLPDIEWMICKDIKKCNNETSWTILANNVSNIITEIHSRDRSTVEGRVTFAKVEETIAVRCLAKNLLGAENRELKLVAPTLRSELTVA
Assay: ELISA; serially diluted biotinylated PDGF sRα added to PDGF-coated wells; detected with streptavidin-HRP
Settings: both partners purified

B1: recombinant human PDGF-BB (ligand, UniProt P01127 82-190, looked up)
chain: SLGSLTIAEPAMIAECKTRTEVFEISRRLIDRTNANFLVWPPCVEVQRCSGCCNNRNVQCRPTQVQLRPVQVRKIEIVRKKPIFKKATVTLEDHLACKCETVAAARPVT
notes: PDGF-B chain, human; homodimer; source: bought: R&D Systems
B1: binds.
